In patent US20130288275:

B1: PCAF (protein)
chain: GVIEFHVVGNSLNQKPNKKILMWLVGLQNVFSHQLPRMPKEYITRLVFDPKHKTLALIKDGRVIGGICFRMFPSQGFTEIVFCAVTSNEQVKGYGTHLMNHLKEYHIKHDILNFLTYADEYAIGYFKKQGFSKEIKIPKTKYVGYIKDYEGATLMGCELNPRIPYTE
B2: CBP (CREB binding protein) from Biomol (protein)
chain: RKENKFSAKRLQTTRLGNHLEDRVNKFLRRQNHPEAGEVFVRVVASSDKTVEVKPGMKSRFVDSGEMSESFPYRTKALFAFEEIDGVDVCFFGMHVQEYGSDCPPPNTRRVYISYLDSIHFFRPRCLRTAVYHEILIGYLEYVKKLGYVTGHIWACPPSEGDDYIFHCHPPDQKIPKPKRLQEWYKKMLDKAFAERIIHDYKDIFKQATEDRLTSAKELPYFEGDFWPNVLEESIKELEQEEEERKKEESTAASETTEGSQGDSKNAKKKNNKKTNKNKSSISRANKKKPSMPNVSNDLSQKLYATMEKHKEVFFVIHLHAGPVINTLPPIVDPDPLLSCDLMDGRDAFLTLARDKHWEFSSLRRSKWSTLCMLVELHTQGQDRFVYTCNEC

Columns and labels:
[1] = target: Purified SUMO-1 (Biomol UW9190), not acetylated
[2] = target: Purified SUMO-3 (Biomol UW9210)
[3] = target: Purified SUMO-2 (Biomol UW9200)

Purified SUMO-3 (Biomol UW9210), sequence (P55854 whole entry): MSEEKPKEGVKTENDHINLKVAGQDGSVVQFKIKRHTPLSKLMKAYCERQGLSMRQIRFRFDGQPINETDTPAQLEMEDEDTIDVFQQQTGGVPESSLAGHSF

| Protein | in vitro acetylation with 14C-acetyl CoA, autoradiography [1] | in vitro acetylation with 14C-acetyl CoA, autoradiography [2] | in vitro acetylation with 14C-acetyl CoA, autoradiography [3] |
| --- | --- | --- | --- |
| B1 | but not by PCAF (not shown) | – | – |
| B2 | purified SUMO-1 was efficiently acetylated by CBP (lane 3) | SUMO-2 and SUMO-3 were also robustly acetylated by CBP (FIG. 2D, lanes 6-7) | SUMO-2 and SUMO-3 were also robustly acetylated by CBP (FIG. 2D, lanes 6-7) |
